Data published in the Human Domainome abundance scans (Beltran et al. 2025).

B1: Histone H1t, residues 44 to 112; numbered along this chain, P22492 (parent)
chain: VSKLITEALSVSQERVGMSLVALKKALAAAGYDVEKNNSRIKLSLKSLVNKGILVQTRGTGASGSFKLS

Variants of: B1
Assay: abundance fitness (aPCA) (normalised: wild type 0, dead -1); higher = more abundant; growth selection in yeast, the domain comes from the species named
Conditions: Homo sapiens

Abundance fitness: each site, then its substitutions
G64: A 0.196, M 0.165, C 0.275, Q 0.085, S 0.046, K 0.031, N -0.373, V 0.154, Y -0.051, E 0.054, P 0.168, I 0.103, L 0.05, D -0.013, F -0.067, R -0.026, H -0.209, W -0.097, T 0.11
F66: H -0.289, D 0.053, I -0.246, W -0.064, E -0.03, M -0.173, Y -0.046, Q -0.072, P -0.112, A 0.008, L -0.097, N -0.119, K -0.042, G -0.127, V -0.078, R -0.084, S -0.108, T -0.129
L68: R -0.138, I -0.223, A -0.176, K -0.064, G -0.049, E -0.099, N -0.149, M -0.082, S -0.115, D -0.147, Y -0.185, F -0.1, C -0.202, H -0.369, Q -0.327, T -0.067, W -0.121
A62: H -0.054, E 0.133, Q 0.021, N 0.073, G 0.104, D 0.008, P -0.013, T -0.006, K 0.054, R -0.072
N50: P -0.076, C -0.311, Y -0.092, F -1.1, D -0.105, R -0.082, L -0.312, S 0.092, A -0.037, G -0.099, Q 0.066, K -0.108, H -0.24, M -0.394, W -0.827, E 0.027, I -0.398, T 0.018, V -0.388
V55: Q -0.127, Y -0.15, C -0.077, E 0.027, D -0.291, A -0.106, G 0.056, P -0.163, S 0.071, M 0.002, I -0.079, N -0.102, L -0.056, H -0.08, T 0.062, F -0.114, W -0.297
L54: Y -0.311, V 0.158, N -0.249, H -0.325, K -0.087, I 0.197, S -0.047, Q 0.092, A -0.3, R 0.168, M 0.062, F -0.036, T -0.246, P -0.083
K67: P -0.202, H -0.148, M -0.066, D -0.174, A -0.028, Y -0.181, L -0.158, C -0.096, Q -0.092, R -0.035, W -0.246, T -0.193, I -0.192, S 0.024, V -0.109, N -0.091, F 0.06
L48: T -0.592, W -0.402, Y -0.624, V -0.536
Q56: P -0.026, A 0.212, E 0.127, K 0.083, G 0.005, R -0.031, T 0.047
G61: A -0.103, N 0.055, R -0.188, P -0.144, I -0.171, Q -0.081, F -0.16, H -0.006, K 0.023, E -0.032, D 0.082, S -0.07, V -0.185, W -0.176, C -0.018, L -0.182, T -0.044, Y -0.218, M -0.213
G52: P -0.39, M -0.199, I -0.352, S -0.129, D -0.08, R -0.434, T -0.15, W -0.457, F -0.184, Q -0.3, C -0.01, H -0.283, L -0.212, N -0.201, K -0.123, Y -0.425
S69: F -0.058, I -0.156, M -0.186, L -0.128, G -0.218, H -0.465, E 0.119, N -0.055, K -0.012, C -0.246, A 0.044, D -0.192
K51: Y -1.1, V -0.481, T -0.212, M -0.258, H -0.289, E 0.016, G -0.322, W -0.557, Q -0.065, D -0.383, L -0.281, R 0.132, F -0.557, S -0.161, P -0.323, N -0.081, A -0.164
S63: T 0.004, I -0.045, H 0.025, G 0.085, Q 0.057, E 0.152, P -0.027, V -0.006, Y -0.204, L 0.006, K -0.019, N -0.113, F -0.028, C -0.54, R -0.133, D 0.029
V49: A -0.336, Q -0.323, D -0.416, W -0.495, N -0.54, R -0.262, S -0.423, M 0.062, I -0.026, K -0.173, H -0.432, L 0.052, F -0.056, P -0.434, Y -0.135
S65: E 0.175, T 0.062, N 0.008, A 0.031, F -0.146, K -0.049, G -0.003, Q 0.039, H -0.084, R -0.285
G59: H -0.13, N -0.186, V -0.09, M -0.152, L -0.049, S -0.113, E -0.086, Q -0.079, A -0.148, Y -0.222, D 0.025, R -0.146, I 0.119, P -0.138, C -0.015, K 0.001, F -0.074
T60: E -0.012, H -0.076, L -0.102, G -0.033, R -0.126, P 0.025, I -0.115, K 0.013, Q -0.02, W -0.123, D 0.133, N -0.036, M 0.062, V -0.038, A 0.074, Y -0.218, F -0.236, C -0.042
T57: N -0.058, Q -0.013, Y -0.133, G -0.102, V -0.052, E 0.117, L -0.026, W -0.252, P -0.061, F -0.14, S -0.039, C -0.019, I -0.147, R -0.036, M -0.048, A 0.024, K -0.011, H -0.001
I53: F -0.031, G -0.363, A -0.118, L -0.067, E -0.002, R -0.099, H -0.095, Y -0.184, V -0.025, W -0.062, P -0.202, C -0.153, Q 0.033, T -0.082, S -0.081, M -0.054
R58: I -0.09, D 0.022, V -0.089, L -0.073, A 0.078, E 0.028, G 0.205, C -0.121, W -0.151, M -0.077, S 0.103, Y -0.246, P -0.02, N 0.227, F -0.115, Q 0.036, K 0.155, H -0.041
